The text below walks through data of PMC11371216, “Structural insight into the DNMT1 reaction cycle by cryo-electron microscopy”.

For the data set, the target named is DNMT1 (human, UniProt P26358 1-1616). The experiment in a line: EMSA; SAM 20-fold excess + GSK3852279B 5-fold excess; no substantial change in binding; EMSA: 25 mM Tris-HCl pH 7.5, 40 mM NaCl, 20% glycerol, 1 mM DTT, 0.5 mM MgCl2, overnight at room temperature; covalent assay: 25 mM Tris-HCl pH 7.5, 20 mM KCl. The conditions noted are these: protein: recombinant; tags: N-terminal Flag-6xHis-TEV site; blunt.
DNMT1, sequence (P26358 whole entry): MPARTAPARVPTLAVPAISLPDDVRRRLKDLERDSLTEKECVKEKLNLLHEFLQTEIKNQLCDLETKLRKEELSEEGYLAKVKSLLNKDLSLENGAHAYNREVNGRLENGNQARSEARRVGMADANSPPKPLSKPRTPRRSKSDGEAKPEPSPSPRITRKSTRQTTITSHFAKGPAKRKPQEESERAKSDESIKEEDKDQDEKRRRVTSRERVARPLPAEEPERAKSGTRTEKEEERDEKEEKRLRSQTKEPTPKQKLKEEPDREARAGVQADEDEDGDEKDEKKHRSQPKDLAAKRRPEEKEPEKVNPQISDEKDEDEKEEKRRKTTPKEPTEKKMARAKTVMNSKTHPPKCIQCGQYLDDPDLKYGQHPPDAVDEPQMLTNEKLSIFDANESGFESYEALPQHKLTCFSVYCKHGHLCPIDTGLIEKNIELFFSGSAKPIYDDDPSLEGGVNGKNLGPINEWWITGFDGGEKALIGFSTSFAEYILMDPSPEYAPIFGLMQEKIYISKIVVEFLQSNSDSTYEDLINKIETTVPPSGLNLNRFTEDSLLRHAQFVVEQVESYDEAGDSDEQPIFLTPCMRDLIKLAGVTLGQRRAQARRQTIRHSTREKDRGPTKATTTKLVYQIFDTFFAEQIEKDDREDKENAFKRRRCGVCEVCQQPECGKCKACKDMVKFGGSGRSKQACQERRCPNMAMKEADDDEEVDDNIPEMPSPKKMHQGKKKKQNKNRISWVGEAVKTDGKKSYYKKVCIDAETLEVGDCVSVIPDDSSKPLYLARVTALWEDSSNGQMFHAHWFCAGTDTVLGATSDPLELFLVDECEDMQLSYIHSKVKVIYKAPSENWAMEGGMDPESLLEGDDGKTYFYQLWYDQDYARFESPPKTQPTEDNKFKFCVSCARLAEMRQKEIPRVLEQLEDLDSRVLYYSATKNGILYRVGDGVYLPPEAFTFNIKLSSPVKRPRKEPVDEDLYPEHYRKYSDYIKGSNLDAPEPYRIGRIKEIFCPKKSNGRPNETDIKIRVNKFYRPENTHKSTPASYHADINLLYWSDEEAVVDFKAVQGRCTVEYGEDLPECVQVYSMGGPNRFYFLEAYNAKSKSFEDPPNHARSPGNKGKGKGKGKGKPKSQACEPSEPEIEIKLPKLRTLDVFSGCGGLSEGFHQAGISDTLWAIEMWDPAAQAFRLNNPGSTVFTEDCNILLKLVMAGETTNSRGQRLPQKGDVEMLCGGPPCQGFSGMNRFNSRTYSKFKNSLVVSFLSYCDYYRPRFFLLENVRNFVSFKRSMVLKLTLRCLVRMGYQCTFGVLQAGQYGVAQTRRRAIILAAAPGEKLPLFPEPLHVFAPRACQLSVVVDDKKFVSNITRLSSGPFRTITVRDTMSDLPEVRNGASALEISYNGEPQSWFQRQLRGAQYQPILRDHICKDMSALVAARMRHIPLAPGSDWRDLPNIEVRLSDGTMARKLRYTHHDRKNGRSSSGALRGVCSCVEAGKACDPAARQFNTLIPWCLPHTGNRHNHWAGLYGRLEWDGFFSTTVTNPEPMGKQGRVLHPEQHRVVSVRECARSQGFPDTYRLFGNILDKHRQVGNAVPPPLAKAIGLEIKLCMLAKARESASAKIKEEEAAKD

B1: 26 bp hemi-methylated DNA (dsDNA)
DNA 1: TGGAGTCGAGGCCGCCTGCGCAGGAC
DNA 2: GTCCTGCGCAGGCGGCCTCGACTCCA
modifications: 5-methyl-dC at position 13 of strand 1
As for B1, the binding result is listed as “binds”.
